From article doi:10.1101/2025.03.18.644018v1

B1: NADP-ME1.1 (Glycine max) (protein)
chain: SMTPSSSSSSRSGDRNGSVVMETPLKELKKESTVADVDDNAISAGGPQDVYGEDRATEDHFVTPWSVSVASGYTLLRDPHFNKGLAFTEDERDAHYLRGLLPPSVIPQETQVKKMIQHVRQYQVPLQKYMAMMDLQERNERLFYKLLIDHVEELLPVVYTPTVGEACQKYGSIFMHPQGLYISLKEKGKIREVLRNWPEKNIQVIVVTDGERILGLGDLGCQGMGIPVGKLSLYTALGGVRPSACLPITIDVGTNNEKLLNDELYIGLKQRRATGQEYAELMHEFMTAVKQTYGEKVLIQFEDFANHNAFNLLEKYRSTHLVFNDDIQGTASVVLAGLVASLKLVGGNLADHRFLFLGAGEAGTGIAELIALETSKQTNAPLEEVRKNIWLVDSKGLIVSSRKDSLQHFKKPWAHEHEPVKNLLDAVNKIKPTVLIGTSGQGRTFTKEVIEAMASINKRPIILSLSNPTSQSECTAEEAYKWSQGRAIFASGSPFPPVEYEGKVFVPGQANNAYIFPGFGLGLIMSGTIRVHDDLLLAASEALAAQVSQENFDKGLIYPPFTNIRKISAHIAANVAAKAYELGLATRLPQPKDLVKFAESCMYTPAYRSYR
B2: NAD-ME1 + NAD-ME2.3 (Glycine max) (protein)
chain 1: PSIVHKRSLDILHDPWFNKGTAFSMTERDRLDLRGLLPPNVMSPDLQIERFMVDLKRLEVQARDGPSDPNALAKWRILNRLHDRNETMYYKVLIAKIEEYAPIVYTPTVGLVCQNYSGLFRRPRGMYFSAEDRGEMMSMVYNWPAEQVDMIVVTDGSRILGLGDLGVQGIGIAIGKLDLYVAAAGINPQRVLPVMIDVGTNNEKLLEDPLYLGLQQHRLDGDDYLAVVDEFMEAVFTRWPNVIVQFEDFQSKWAFKLLQRYRNTYRMFNDDVQGTAGVAIAGLLGAVRAQGRPLIDFPKQKIVVAGAGSAGIGVLNAARKTMARMLGNNEVAFESAKSQFWVVDAQGLITEGRENIDPDALPFARNLKEMDRQGLREGASLVEVVKQVKPDVLLGLSAVGGLFSKEVLEALKGSTSTRPAIFAMSNPTKNAECTAEEAFSILGDNIIFASGSPFSNVDLGNGHIGHCNQGNNMYLFPGIGLGTLLSGARIVSDGMLQAAAERLATYMSEEEVLKGIIFPSTSRIRDITKQVATAVIKEAVEEDLAEGYHGMDARELQKLSEDEIAEYVQNNMWSPEYPTLVYKKE
chain 2: CIVHKRGADILHDPWFNKDTGFPLTERDRLGLRGLLPPRVISFEQQYDRFMNSFRSLENNTQGQPDKVVSLAKWRILNRLHDRNETLYYRVLIDNIKEFAPIIYTPTVGLVCQNYSGLFRRPRGMYFSAKDKGEMMSMIYNWPAHEVDMIVLTDGSRILGLGDLGVQGIGIPIGKLDVYVAAAGINPQRILPVMLDVGTNNQKLLEDRLYLGLRQPRLEGEEYLSIVDEFMEAVHARWPKAIVQFEDFQMKWAFETLKRYQKRFCMFNDDIQGTAGVALAGILGTVRAQGRPLTDFVNQKIVVVGAGSAGLGVLKMAIQTVAKISGCSELAAKSQFYLIDKDGLVTTERNSLDPAAAPFAKNPRDIEGLTEGASIIEVVKKIRPHVLLGLSGVGGIFNEEVLKAMRESVSTKPAIFAMSNPTMNAECTSIDAFKHAGENIVFASGSPFENVDLGNGKVGHVNQANNMYLFPGIGLGTLLSGAHLITDGMLQAASECLASYMAEEDILKGILYPSVDSIRDVTAEVGAAVLRAAVEEELAEGHGDVGPKELSHMSKDEAVEYVRSNMWYPVYSPLVHEK
B3: NAD-ME1 + NAD-ME2.4 (Glycine max) (protein)
chain 1: B2 chain 1
chain 2: CIVHKRGADILHDPWFNKDTGFPLTERDRLGLRGLLPPRVISFEQQYDRFMNSFRSLENNTQGQPDKVVSLAKWRILNRLHDRNETLYYRVLIDNIKEFAPIIYTPTVGLVCQNYSGLFRRPRGMYFSAKDKGEMMSMIYNWPAHEVDMIVLTDGSRILGLGDLGVQGIGIPIGKLDVYVAAAGINPQRILPVMLDVGTNNQKLLEDRLYLGLRQPRLEGEEYLSIIDEFMEAVHARWPKAIVQFEDFQMKWAFETLKRYQKKFCMFNDDIQGTAGVALAGLLGTVRAQGRPLTDFVNQKIVVVGAGSAGLGVLKMAIQAVAKISGCSELAAKSQFYLIDKDGLVTTERNNLDPAAAPFAKNPRDIEGLTEGASIIEVVKKIRPHVLLGLSGVGGIFNEEVLKAMRESVSTKPAIFAMSNPTMNAECTAIDAFKHAGENMVFASGSPFENVDLGNGIVGHVNQANNMYLFPGIGLGTLLSGAHLITDGMLQAAAECLASYMAEEDILKGILYPSVDSIRDVTAEVGAAVLRAAVEEELAEGNGDVGPKELSHMSKDETVEYVRSNMWYPVYSPLVHEK

Columns and labels:
purified protein [1] = substrate: CC(=O)C(=O)O; test: purified protein; assay type: biochemical, Glycine max; conditions: reverse reaction, NaHCO3, NADPH, MgCl2, pH 6.5, 30°C
purified protein [2] = substrate: O=C(O)C[C@H](O)C(=O)O; test: purified protein; conditions: equimolar mixture, forward, saturating NAD, MnCl2, pH 6.5, 30°C

Protein | K0.5 (purified protein [1]) | kcat (purified protein [1]) | K0.5 (purified protein [2]) | kcat (purified protein [2])
B1 | 5.1 ± 0.5 mM | 202.4 ± 6.9 s⁻¹ | – | –
B2 | – | – | 0.2 ± 0.1 mM | 338.3 ± 15.8 s⁻¹
B3 | – | – | 0.6 ± 0.2 mM | 393.6 ± 63.8 s⁻¹
